Values joined by “and” are separate entries in the source; they are usually repeats but may differ in a detail not shown here. Equal values may be shown once. Each block holds one substance with its values, some of them ahead of it.
What was measured:
FITC-3BP2 = test: fluorescence polarisation; saturation binding: dilution series of the protein domain added to 10 nM FITC-labelled peptide; 50 mM sodium phosphate pH 7.4, 0.05% Tween (protein dialysed in 50 mM sodium phosphate with 1 mM DTT; CASK kinase domain with 100 mM NaCl in addition); quadratic fit; technical triplets
[1] = target: importin subunit α-3 (KPNA4) ARM domain; test: fluorescence polarisation displacement; settings: major pocket
[2] = target: MAP1LC3B ATG8 domain (human) (UniProt Q9GZQ8); test: ITC; peptide titrated in tenfold excess in 16 injections against the protein domain; 50 mM sodium phosphate pH 7.4, 1 mM DTT; iTC200; wild-type in technical duplicate, mutant in technical triplets; one line of constants for each repeat
[3] = target: MAP1LC3B ATG8 domain (human); test: ITC; peptide titrated in tenfold excess in 16 injections against the protein domain; 50 mM sodium phosphate buffer pH 7.4, 1 mM DTT; iTC200
[4] = target: MAP1LC3B ATG8 domain (human); test: fluorescence polarisation; displacement: unlabelled peptide titrated onto a complex of FITC-labelled peptide (10 nM) and protein domain (1-2x KD); 50 mM sodium phosphate buffer pH 7.4 (CASK: plus 100 mM NaCl); KD calculated from IC50; technical triplets
FITC-TCF3 = test: fluorescence polarisation; saturation binding: dilution series of the protein domain added to 10 nM FITC-labelled peptide; 50 mM sodium phosphate pH 7.4, 0.05% Tween (protein dialysed in 50 mM sodium phosphate with 1 mM DTT; CASK kinase domain with 100 mM NaCl in addition); quadratic fit; technical triplets
FITC-PER2 = test: as above
ABL1 SH3 (human) = ABL1 SH3 (human) (UniProt P00519); test: fluorescence polarisation; displacement: unlabelled peptide titrated onto a complex of FITC-labelled peptide (10 nM) and protein domain (1-2x KD); 50 mM sodium phosphate buffer pH 7.4 (CASK: plus 100 mM NaCl); KD calculated from IC50; technical triplets
Sequence of ABL1 SH3 (human) (P00519 61-121): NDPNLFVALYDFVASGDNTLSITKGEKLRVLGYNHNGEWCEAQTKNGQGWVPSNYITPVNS

Sequence of CREBBP KIX domain (Q92793 587-666): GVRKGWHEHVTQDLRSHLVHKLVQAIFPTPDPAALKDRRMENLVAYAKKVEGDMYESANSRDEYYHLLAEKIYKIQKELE
Sequence of ABL1 SH3 domain (P00519 61-121): as the sequence (P00519 61-121) above

Kd (FITC-3BP2): 3.7 µM
Substance: ABL1 SH3 domain (from UniProt P00519 61-121) (domain or fragment)

Kd [1]: 75 µM
Substance: ABRAXAS1_(349-364) wild-type peptide R361Q

stoichiometry N [2]: 0.744 and 0.685 and 0.649
Substance: BRCA2 292-307 peptide, mutant T298I/V299L/V300R

Kd [2]: 109 µM and 63.7 µM and 18.2 µM | stoichiometry N [2]: 0.7 and 0.684
Substance: BRCA2 292-307 peptide, wild-type

Kd [3]: 2 µM | Kd [4]: 520 nM
Substance: BRCA2_(292-307) T298I/V299L/V300R peptide

Kd [3]: 20 to 100 µM | Kd [4]: 3120 nM
Substance: BRCA2_(292-307) wild-type peptide

Kd [4]: 1600 nM
Substance: BUB1_(486-501) S492F peptide

Kd [4]: 7000 nM
Substance: BUB1_(486-501) wild-type peptide

Kd (FITC-TCF3): 35 µM
Substance: CREBBP KIX domain (from UniProt Q92793 587-666) (domain or fragment)

Kd (FITC-PER2): 3.4 µM
Substance: Peripheral plasma membrane protein CASK (CASK) kinase domain (from UniProt O14936 12-276) (domain or fragment)

Kd [4]: 600 nM
Substance: SQSTM1 334-349 P348L peptide

Kd [4]: 500 nM
Substance: SQSTM1 334-349 wild-type peptide

Kd (ABL1 SH3 (human)): 560 µM
Substance: TP53 64-80 P72R peptide

Reference: article PMC11369174, “Proteome-scale characterisation of motif-based interactome rewiring by disease mutations” (Molecular Systems Biology, 2024)
